Target: His221 (UniProt position 221, RKPFYHAFSFM)
Test: electrophysiology
Conditions: Symmetrical high K+. Bath: standard solution with Na+ replaced equimolarly by K+ (140 mM extracellular K+). Pipette: 140 mM KCl.; 10 mM Hepes/Tris; MES for pH 5.0-6.5, AMPSO for pH 8.5-9.0, CAPS for pH 9.5-11.0; pHo gating in high symmetrical K+ (needed to restore currents of the double mutant)

Q: “TASK-3 (K2P9.1, KCNK9) H98N/V221H double mutant (Cavia porcellus; H98N;V221H)” was tested. Which pKa did it give?
A: 6.86±0.11

— paper PMC3026807
